Data as given in patent US7326418B2, “Identification of novel factors that block programmed cell death or apoptosis by targeting JNK” (University of Chicago, priority 2001, dated 2008).

T1: JNKK1/MKK4 (Mus musculus, UniProt P47809)
T1 construct: expressed in transfected cells; host or cells: HEK-293; anti-FLAG immunoprecipitate
T1 sequence (P47809 2-397): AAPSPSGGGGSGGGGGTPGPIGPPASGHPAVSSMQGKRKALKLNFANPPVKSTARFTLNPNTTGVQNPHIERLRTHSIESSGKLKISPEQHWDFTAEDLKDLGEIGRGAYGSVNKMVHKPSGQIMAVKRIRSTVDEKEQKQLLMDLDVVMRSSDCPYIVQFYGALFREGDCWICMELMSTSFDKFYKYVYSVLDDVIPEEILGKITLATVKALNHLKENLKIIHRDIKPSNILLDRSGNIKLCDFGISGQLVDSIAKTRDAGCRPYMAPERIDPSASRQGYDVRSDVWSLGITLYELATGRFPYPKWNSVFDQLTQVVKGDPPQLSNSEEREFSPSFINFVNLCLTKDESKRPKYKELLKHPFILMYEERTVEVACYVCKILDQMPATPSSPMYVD

B1: Gadd45β: purified recombinant His6-tagged Gadd45β protein; also used generically for the recombinant Gadd45β proteins (protein, UniProt O75293 1-160, looked up)
Growth arrest and DNA …: MTLEELVACDNAAQKMQTVTAAVEELLVAAQRQDRLTVGVYESAKLMNVDPDSVVLCLLAIDEEEEDDIALQIHFTLIQSFCCDNDINIVRVSGMQRLAQLLGEPAETQGTTEARDLHCLLVTNPHTDAWKSHGLVEVASYCEESRGNNQWVPYISLQER
modifications: His6 tag
notes: purified recombinant His6-tagged Gadd45β protein; also used generically for the recombinant Gadd45β proteins
B2: His6-Gadd45β: human full-length Gadd45β purified from E. coli as His6-tagged protein (protein, UniProt O75293 1-160, looked up)
chain: MTLEELVACDNAAQKMQTVTAAVEELLVAAQRQDRLTVGVYESAKLMNVDPDSVVLCLLAIDEEEEDDIALQIHFTLIQSFCCDNDINIVRVSGMQRLAQLLGEPAETQGTTEARDLHCLLVTNPHTDAWKSHGLVEVASYCEESRGNNQWVPYISLQER
modifications: full-length His6 tag
notes: human full-length Gadd45β purified from E. coli as His6-tagged protein
B3: GST-Gadd45β: full-length murine Gadd45β directly fused to GST, purified from E. coli (protein)
chain: MTLEELVASDNAVQKMQAVTAAVEQLLVAAQRQDRLTVGVYEAAKLMNVDPDSVVLCLLAIDEEEEDDIALQIHFTLIQSFCCDNDIDIVRVSGMQRLAQLLGEPAETLGTTEARDLHCLLVTNCHTDSWKSQGLVEVASYCEESRGNNQWVPYISLEER
modifications: left off: a dimerising Fc or GST
notes: full-length murine Gadd45β directly fused to GST, purified from E. coli

The molecules below were run against T1, JNKK1/MKK4 (assay: Kinase assay of immunoprecipitated FLAG-JNKK1/MKK4 with recombinant Gadd45β proteins). Details: in vitro, even at high concentrations.
Format: biochemical
Procedure: Next, the functional consequences, in vitro, of the physical interactions of Gadd45β with kinases in the JNK pathway were assessed. Murine and human, full-length Gadd45J3 proteins were purified from E. coli as GST-Gadd45β and His6-tagged Gadd45β (His6 disclosed as SEQ ID NO: 46), respectively, according to standard procedures. Prior to employing these proteins in in vitro assays, purity of all recombinant polypeptides was assured by >98%, by performing Coomassie blue staining of SDS polyacrylamide gels. Then, the ability of these proteins, as well as of control GST and His6-EF3 (His6 disclosed as SEQ ID NO: 46)proteins, to inhibit kinases in the JNK pathways was monitored in vitro. FLAG-tagged JNKK2, JNKK1, MKK3, and ASK1 were immunoprecipitated from transiently transfected 293 cells using anti-FLAG antibodies and pre-incubated for 10 minutes with increasing concentrations of recombinant proteins, prior to the addition of specific kinase substrates (i.e. GST-JNK1 with JNKK1 and JNKK2; GST-p38[…] with MKK3; GST-JNNK1 or GST-JNKK2 with ASK1). […] These findings indicate that, upon binding to Gadd45β, JNKK2 is effectively inactivated.
A question was whether Gadd45β inhibited active MKK7, in vitro. FLAG-MKK7 was immunoprecipitated from TNFα-treated or untreated 293 cells, and kinase assays were performed in the presence of purified His6-Gadd45β (His6 disclosed as SEQ ID NO: 46), GST-Gadd45β, or control proteins (FIG. 28d; see also FIG. 28g). […] Consistent with the in vivo findings (FIG. 27), the inhibitory activity of Gadd45β was specific. […] Indeed, the effects of Gadd45β on MKK7 phosphorylation by TNFα may be due inhibition of the MKK7 ability to auto-phoshorylate and/or to serve as substrate for upstream kinases. Altogether, the findings identify MKK7 as a target of Gadd45β, and of NF-[…]B, in the JNK cascade. Of interest, MKK7 is a selective activator of JNK, and its ablation abolishes JNK activation by TNFα. Thus, blockade of MKK7 is sufficient on its own to explain the effects of Gadd45β on JNK signaling—i.e. its specific and near-complete suppression of this signaling. […]
For B1, the “effect on JNKK1/MKK4 kinase activity” value was “did not hamper”. B2 was tested, and the “effect on JNKK1/MKK4 kinase activity” value was “neither GST-Gadd45β nor His6-Gadd45β (His6 disclosed as SEQ ID NO: 46) had significant effects”. B3 was tested, and the “effect on JNKK1/MKK4 kinase activity” value was “neither GST-Gadd45β nor His6-Gadd45β (His6 disclosed as SEQ ID NO: 46) had significant effects”.
